From patent US20100022454A1 (Novo Nordisk, published 2010) come the findings set out here.

The target of test [1] is prolactin receptor (PRLR) on T47D cells. In words: cell-based or functional assay.
For test [2], the target named is T1, hPRLR on stably transfected BaF/3 cells (human, UniProt P16471 25-622).
T1 sequence (looked up): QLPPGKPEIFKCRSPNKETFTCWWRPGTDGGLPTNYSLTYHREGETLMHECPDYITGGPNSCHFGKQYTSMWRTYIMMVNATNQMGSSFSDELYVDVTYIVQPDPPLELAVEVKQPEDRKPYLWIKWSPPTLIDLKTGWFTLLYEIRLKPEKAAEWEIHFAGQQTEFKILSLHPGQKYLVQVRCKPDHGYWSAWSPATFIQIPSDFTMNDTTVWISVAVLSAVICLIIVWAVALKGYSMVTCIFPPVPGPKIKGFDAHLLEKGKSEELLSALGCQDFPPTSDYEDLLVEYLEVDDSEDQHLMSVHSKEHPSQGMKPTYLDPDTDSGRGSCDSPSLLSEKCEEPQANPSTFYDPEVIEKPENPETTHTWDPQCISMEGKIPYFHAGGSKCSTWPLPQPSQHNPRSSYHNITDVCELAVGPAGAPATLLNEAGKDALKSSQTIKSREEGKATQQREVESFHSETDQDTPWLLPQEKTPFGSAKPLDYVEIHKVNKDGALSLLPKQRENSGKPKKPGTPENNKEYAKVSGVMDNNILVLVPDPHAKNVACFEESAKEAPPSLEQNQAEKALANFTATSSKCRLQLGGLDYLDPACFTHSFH
In words: cell-based or functional assay.

B1: PRL G129R (ligand)
chain: LPICPGGAARCQVTLRDLFDRAVVLSHYIHNLSSEMFSEFDKRYTHGRGFITKAINSCHTSSLATPEDKEQAQQMNQKDFLSLIVSILRSWNEPLYHLVTEVRGMQEAPEAILSKAVEIEEQTKRLLERMELIVSQVHPETKENEIYPVWSGLPSLQMADEESRLSAYYNLLHCLRRDSHKIDNYLKLLKCRIIHNNNC
Take B1: the “Apparent IC50 (nM) at 20 nM PRL; inhibition of PRL induced STAT3 phosphorylation, phospho-STAT3 ELISA on T47D cells” value in test [1] is 69 nM.

B2: human prolactin (PRL), wildtype (ligand)
chain: LPICPGGAARCQVTLRDLFDRAVVLSHYIHNLSSEMFSEFDKRYTHGRGFITKAINSCHTSSLATPEDKEQAQQMNQKDFLSLIVSILRSWNEPLYHLVTEVRGMQEAPEAILSKAVEIEEQTKRLLEGMELIVSQVHPETKENEIYPVWSGLPSLQMADEESRLSAYYNLLHCLRRDSHKIDNYLKLLKCRIIHNNNC
As for B2, in test [2], the “EC50 (nM) of PRL in the presence of 1 µM PRL S61A G129R, BaF3 proliferation assay (AlamarBlue), n = 9” value was determined as 40 nM and the “EC50 (nM), BaF3 proliferation assay (AlamarBlue), n = 31” value stood at 0.15 nM.

B3: PRL S61A G129R (ligand)
chain: LPICPGGAARCQVTLRDLFDRAVVLSHYIHNLSSEMFSEFDKRYTHGRGFITKAINSCHTASLATPEDKEQAQQMNQKDFLSLIVSILRSWNEPLYHLVTEVRGMQEAPEAILSKAVEIEEQTKRLLERMELIVSQVHPETKENEIYPVWSGLPSLQMADEESRLSAYYNLLHCLRRDSHKIDNYLKLLKCRIIHNNNC
Turning to B3, the “Apparent IC50 (nM) at 20 nM PRL; inhibition of PRL induced STAT3 phosphorylation, phospho-STAT3 ELISA on T47D cells” value in test [1] was found to be 18 nM.
